{"source": "paper PMC5308003", "data": [{"target": "T1, 6His-OxyR-Like (Magnetospirillum gryphiswaldense MSR-1) (UniProt V6F1S1)", "T1 sequence": "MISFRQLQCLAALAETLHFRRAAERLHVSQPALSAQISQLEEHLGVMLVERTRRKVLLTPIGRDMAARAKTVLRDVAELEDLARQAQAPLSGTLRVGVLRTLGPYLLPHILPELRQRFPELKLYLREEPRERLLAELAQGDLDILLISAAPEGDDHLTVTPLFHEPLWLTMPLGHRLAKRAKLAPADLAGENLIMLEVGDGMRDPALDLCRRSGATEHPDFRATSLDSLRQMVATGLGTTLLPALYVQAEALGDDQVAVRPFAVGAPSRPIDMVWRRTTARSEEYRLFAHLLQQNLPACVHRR", "test": "EMSA", "settings": "EMSA: DIG Gel Shift Kit 2nd Gen (Roche) binding buffer with 1 uL poly[d(I-C)], 20 uL, 25 C 30 min, 5% native PAGE in 0.5x TBE; footprinting: 1000 ng labeled …", "values": [{"sequence": "TGGGCTGTTGCTTGTCTTATCTTTTTTCATTTCCGCCTCACAGGCTGAATTATCTGAAAAGGAAATAGATGAGGATCAGGACTGGGATGGGAACGCCAACCAGCCAGAGAAGGCCGTATTTCATTTCCTACCTCGCTGTTCTGCCGGTGTGTCATGGGGCAATGGAGCCGTCCTGATACAAGA (double strand) [katE promoter EMSA probe]", "binding": "no binding"}, {"sequence": "CTTGATCCCGATAATCTGCTGATCGTGGTGGTCGGCAAGCCGGAAGGGGTCAACGGCACGCCCTAACCCGAAAAGACGGCGGCGGCAAAAATCAACGCCGCCCAGTGATCCGTTTCTCCCGTGACACCGTAGAAGGGTCATAAGGAGAAACGCGATGCCTCGGATCATCAAGATTGTTGCCGGCGCTTTGGCCACCTGTCTGGCGGCGACGGCCCCGGCCAAGGCCAGTGGTGCTGTCTTGGACT (double strand) [bsaA promoter EMSA probe]", "binding": "no binding"}, {"sequence": "CAGGGCAGGATGATGTGAGTGCGTAGACAGATAGGTAAACCAACCTTCCCTTTTAGGCAAGGCGTTTCGCCGTCAAAAATGCTTATATTGCAATGCAATAATGGCAATTAACTGGATAATAGTTATTTATCAAAACCTAACCAGATGGGCGGGCAACGGGTGGTGCGATGCAGCAATCCTTTTGCCTCATCGGGTTAGCGCCTGACAGGGATATTGGGAGCGGGCAAACACTTGAAAACCCACCCGGCGGACAAAATCGCGCCAACCGGTCCATTTCACAATGCACCCATTCAGAGCAAA (double strand) [pdh promoter EMSA probe]", "binding": "binds"}, {"sequence": "GGGCGAAGAATGGACATCGTCGTCTCCATTAGGCTGTTGTCCGTGATTGAGACTATGCCCCCTTCTTTGTGATAATTCTAATCGATATATCTTGAGATATTGATAGTAAATTGTTATCAGTGATCCATGATCAGCTTTCGCCAATTACAATGCCT (double strand) [oxyR-Like promoter EMSA probe]", "binding": "binds"}, {"sequence": "CGGCACTTGTTCCATGAACTTCGACCATATCGCTCTCCCATTCAACCAATTGTTAGCCTTGGGCTTGGCGATATTCTAACCGTTCCTCCATTCAACTCATACAGATGTGGTTTAGAAGCTTTTTAATAAATACTTGAGGGTCCGGAAATCATTAGCCGAACCCTCAATAGCCTCAGCTATGCAGGCCGGGGGCTTCATGTCCGGTGCGGGCCACGTATTCGGTGTAGCCGC (double strand) [katG promoter EMSA probe]", "binding": "no binding"}]}]}
